Tests used:
[1] = system: ticagrelor glucuronidation in pooled HIM; test: Effects of typical UGT inhibitors on ticagrelor glucuronidation in pooled HIM; assay type: in vitro ADME, human; conditions: 10 μM ticagrelor
Procedure: (§1) Ticagrelor glucuronidation was investigated in an in vitro incubation system by using HLM, HIM, and recombinant human UGTs. The incubation system consisted of enzyme sources (HLM, HIM, or human recombinant UGTs), various concentrations of ticagrelor (dissolved in 50% methanol, 1% v/v, 1, 2, 5, 10, 20, 50, 100, 200, 500 μM of final concentration), alamethicin (50 μg/mg protein), 5 mM MgCl2, 100 mM tris-HCL buffer (pH 7.4), and 5 mM UDPGA in a total volume of 100 μl. Alamethicin is a pore-forming polypeptide used to activate UGTs in HLM and HIM ([Fisher et al., 2000]). Preliminary studies were conducted to determine the optimal protein concentrations and incubation times. Linear conditions of ticagrelor-O-Glu formation from ticagrelor, i.e., HLM, 0.2 mg of protein/ml and 60 min, HIM, 0.2 mg of protein/ml and 60 min, and recombinant human UGTs, 0.2 mg of protein/ml and 60 min were selected. The incubation mixture without UDPGA was placed on ice for 15 min to activate UGT by alamethicin. After pre-incubation for 5 min at 37°C, the reactions were started by the addition of UDPGA. After another 60 min of incubation at 37°C, the reaction was terminated by adding 100 μl of acetonitrile containing internal standard (diazepam). The mixture vortexed for 2 min and then centrifuged at 14,000 rpm for 10 min at 4°C. The resulting supernatant was injected into a liquid chromatography tandem mass spectrometry (LC-MS/MS, Applied Biosystems/MDS Sciex, Foster City, CA) system for the detection of ticagrelor-O-Glu.
(§2) The final concentrations of UGT inhibitors for each UGT isoform were set in accordance with previous publications as follows: atazanavir, 1 μM, UGT1A1; celastrol, 5 μM, UGT1A3; hecogenin, 1 μM, UGT1A4; niflumic acid, 1 μM, UGT1A9; and mefenamic acid, 20 μM, UGT2B7 ([Lee et al., 2019]). The assays were performed as described above, with 10 μM ticagrelor. The percentage of remaining glucuronidation activity was expressed by the following equation: Remaining activity(%)=Concentration of ticagrelor-O-Glu with inhibitor /Concentration of ticagrelor-O-Glu without inhibitor×100.

[2] = system: ticagrelor glucuronidation in pooled HLM; test: Effects of typical UGT inhibitors on ticagrelor glucuronidation in pooled HLM; assay type: in vitro ADME, human; conditions: 10 μM ticagrelor
Procedure: as §1, §2

[3] = substrate: CCCSc1nc(N[C@@H]2C[C@H]2c2ccc(F)c(F)c2)c2nnn([C@@H]3C[C@H](OCCO)[C@@H](O)[C@H]3O)c2n1; test: Ticagrelor glucuronidation by recombinant human UGT1A3; assay type: in vitro ADME; conditions: other: recombinant UGT1A3, Michaelis-Menten kinetics; pH 7.4; 37.0 °C
Procedure: as §1
(§3) Kinetic analyses were performed using the mean values of triplicate determinations with either pooled HLM, HIM, or recombinant human UGTs. All data were analyzed by nonlinear regression analysis using the GraphPad Prism 6 (GraphPad Software Inc., CA, United States). Michaelis-Menten kinetics (Eq. 1) or substrate inhibition kinetics (Eq. 2) ([Houston and Kenworthy, 2000]) were tested to determine the optimal model for describing the data. […] Intrinsic clearance (CLint) was calculated by dividing Vmax by Km.

[4] = substrate: CCCSc1nc(N[C@@H]2C[C@H]2c2ccc(F)c(F)c2)c2nnn([C@@H]3C[C@H](OCCO)[C@@H](O)[C@H]3O)c2n1; test: Ticagrelor glucuronidation by recombinant human UGT2B7; assay type: in vitro ADME; conditions: other: recombinant UGT2B7, Michaelis-Menten kinetics; pH 7.4; 37.0 °C
Procedure: as §1, §3

[5] = substrate: CCCSc1nc(N[C@@H]2C[C@H]2c2ccc(F)c(F)c2)c2nnn([C@@H]3C[C@H](OCCO)[C@@H](O)[C@H]3O)c2n1; test: Ticagrelor glucuronidation by recombinant human UGT1A8; assay type: in vitro ADME; conditions: other: recombinant UGT1A8, Michaelis-Menten kinetics; pH 7.4; 37.0 °C
Procedure: as §1, §3

[6] = substrate: CCCSc1nc(N[C@@H]2C[C@H]2c2ccc(F)c(F)c2)c2nnn([C@@H]3C[C@H](OCCO)[C@@H](O)[C@H]3O)c2n1; test: Ticagrelor glucuronidation by recombinant human UGT1A7; assay type: in vitro ADME; conditions: other: recombinant UGT1A7, Michaelis-Menten kinetics; pH 7.4; 37.0 °C
Procedure: as §1, §3

[7] = substrate: CCCSc1nc(N[C@@H]2C[C@H]2c2ccc(F)c(F)c2)c2nnn([C@@H]3C[C@H](OCCO)[C@@H](O)[C@H]3O)c2n1; test: Ticagrelor glucuronidation by recombinant human UGT1A9; assay type: in vitro ADME; conditions: other: recombinant UGT1A9, Michaelis-Menten kinetics; pH 7.4; 37.0 °C
Procedure: as §1, §3

[8] = substrate: CCCSc1nc(N[C@@H]2C[C@H]2c2ccc(F)c(F)c2)c2nnn([C@@H]3C[C@H](OCCO)[C@@H](O)[C@H]3O)c2n1; test: Ticagrelor glucuronidation by recombinant human UGT1A1; assay type: in vitro ADME; conditions: other: recombinant UGT1A1, Michaelis-Menten kinetics; pH 7.4; 37.0 °C
Procedure: as §1, §3

Cc1cccc(Nc2ccccc2C(=O)O)c1C [mefenamic acid]
inhibition of ticagrelor-O-Glu formation ([1]; inhibitor 20 μM): 19.24% | inhibition of ticagrelor-O-Glu formation ([2]; inhibitor 20 μM): 42.95%

COC(=O)N[C@H](C(=O)N[C@@H](Cc1ccccc1)[C@@H](O)CN(Cc1ccc(-c2ccccn2)cc1)NC(=O)[C@@H](NC(=O)OC)C(C)(C)C)C(C)(C)C [atazanavir]
inhibition of ticagrelor-O-Glu formation ([1]; inhibitor 1 μM): 6.08% | inhibition of ticagrelor-O-Glu formation ([2]; inhibitor 1 μM): 6.66%

hecogenin
inhibition of ticagrelor-O-Glu formation ([1]; inhibitor 1 μM): 16.75% | inhibition of ticagrelor-O-Glu formation ([2]; inhibitor 1 μM): 9.29%

CC1=C(O)C(=O)C=C2C1=CC=C1[C@@]2(C)CC[C@@]2(C)[C@@H]3C[C@](C)(C(=O)O)CC[C@]3(C)CC[C@]12C [celastrol]
inhibition of ticagrelor-O-Glu formation ([1]; inhibitor 5 μM): 25.02% | inhibition of ticagrelor-O-Glu formation ([2]; inhibitor 5 μM): 19.35%

O=C(O)c1cccnc1Nc1cccc(C(F)(F)F)c1 [niflumic acid]
inhibition of ticagrelor-O-Glu formation ([1]; inhibitor 1 μM): 17.45% | inhibition of ticagrelor-O-Glu formation ([2]; inhibitor 1 μM): 35.48%

B1: recombinant human UGT1A3 (Homo sapiens) (protein)
chain: GKVLVVPIDGSHWLSMREVLRELHARGHQAVVLTPEVNMHIKEENFFTLTTYAISWTQDEFDRHVLGHTQLYFETEHFLKKFFRSMAMLNNMSLVYHRSCVELLHNEALIRHLNATSFDVVLTDPVNLCAAVLAKYLSIPTVFFLRNIPCDLDFKGTQCPNPSSYIPRLLTTNSDHMTFMQRVKNMLYPLALSYICHAFSAPYASLASELFQREVSVVDILSHASVWLFRGDFVMDYPRPIMPNMVFIGGINCANRKPLSQEFEAYINASGEHGIVVFSLGSMVSEIPEKKAMAIADALGKIPQTVLWRYTGTRPSNLANNTILVKWLPQNDLLGHPMTRAFITHAGSHGVYESICNGVPMVMMPLFGDQMDNAKRMETKGAGVTLNVLEMTSEDLENALKAVINDKSYKENIMRLSSLHKDRPVEPLDLAVFWVEFVMRHKGAPHLRPAAHDLTWYQYHSLDVIGFLLAVVLTVAFITFKCCAYGYRKCLGKKGRVKKAHKSKTH
notes: purchased BD Gentest; host or cells: baculovirus-infected insect cells
Km [3]: 19.19 µM | Vmax [3]: 7.8e-07 µmol/min/mg | Vmax/Km [3]: 0.04 µL/min/mg

B2: recombinant human UGT2B7 (Homo sapiens) (protein)
chain: GKVLVWAAEYSHWMNIKTILDELIQRGHEVTVLASSASILFDPNNSSALKIEIYPTSLTKTELENFIMQQIKRWSDLPKDTFWLYFSQVQEIMSIFGDITRKFCKDVVSNKKFMKKVQESRFDVIFADAIFPCSELLAELFNIPFVYSLSFSPGYTFEKHSGGFIFPPSYVPVVMSELTDQMTFMERVKNMIYVLYFDFWFEIFDMKKWDQFYSEVLGRPTTLSETMGKADVWLIRNSWNFQFPYPLLPNVDFVGGLHCKPAKPLPKEMEDFVQSSGENGVVVFSLGSMVSNMTEERANVIASALAQIPQKVLWRFDGNKPDTLGLNTRLYKWIPQNDLLGHPKTRAFITHGGANGIYEAIYHGIPMVGIPLFADQPDNIAHMKARGAAVRVDFNTMSSTDLLNALKRVINDPSYKENVMKLSRIQHDQPVKPLDRAVFWIEFVMRHKGAKHLRVAAHDLTWFQYHSLDVIGFLLVCVATVIFIVTKCCLFCFWKFARKAKKGKND
notes: as for B1
Km [4]: 14.53 µM | Vmax [4]: 2.3e-07 µmol/min/mg | Vmax/Km [4]: 0.02 µL/min/mg

B3: recombinant human UGT1A8 (Homo sapiens) (protein)
chain: GKLLVVPMDGSHWFTMQSVVEKLILRGHEVVVVMPEVSWQLGKSLNCTVKTYSTSYTLEDLDREFMDFADAQWKAQVRSLFSLFLSSSNGFFNLFFSHCRSLFNDRKLVEYLKESSFDAVFLDPFDACGLIVAKYFSLPSVVFARGIACHYLEEGAQCPAPLSYVPRILLGFSDAMTFKERVRNHIMHLEEHLFCQYFSKNALEIASEILQTPVTAYDLYSHTSIWLLRTDFVLDYPKPVMPNMIFIGGINCHQGKPLPMEFEAYINASGEHGIVVFSLGSMVSEIPEKKAMAIADALGKIPQTVLWRYTGTRPSNLANNTILVKWLPQNDLLGHPMTRAFITHAGSHGVYESICNGVPMVMMPLFGDQMDNAKRMETKGAGVTLNVLEMTSEDLENALKAVINDKSYKENIMRLSSLHKDRPVEPLDLAVFWVEFVMRHKGAPHLRPAAHDLTWYQYHSLDVIGFLLAVVLTVAFITFKCCAYGYRKCLGKKGRVKKAHKSKTH
notes: as for B1
Km [5]: 6.63 µM | Vmax [5]: 9e-08 µmol/min/mg | Vmax/Km [5]: 0.01 µL/min/mg

B4: recombinant human UGT1A7 (Homo sapiens) (protein)
chain: GKLLVVPMDGSHWFTMQSVVEKLILRGHEVVVVMPEVSWQLGRSLNCTVKTYSTSYTLEDQDREFMVFADARWTAPLRSAFSLLTSSSNGIFDLFFSNCRSLFNDRKLVEYLKESCFDAVFLDPFDACGLIVAKYFSLPSVVFARGIFCHYLEEGAQCPAPLSYVPRLLLGFSDAMTFKERVWNHIMHLEEHLFCPYFFKNVLEIASEILQTPVTAYDLYSHTSIWLLRTDFVLEYPKPVMPNMIFIGGINCHQGKPVPMEFEAYINASGEHGIVVFSLGSMVSEIPEKKAMAIADALGKIPQTVLWRYTGTRPSNLANNTILVKWLPQNDLLGHPMTRAFITHAGSHGVYESICNGVPMVMMPLFGDQMDNAKRMETKGAGVTLNVLEMTSEDLENALKAVINDKSYKENIMRLSSLHKDRPVEPLDLAVFWVEFVMRHKGAPHLRPAAHDLTWYQYHSLDVIGFLLAVVLTVAFITFKCCAYGYRKCLGKKGRVKKAHKSKTH
notes: as for B1
Km [6]: 1.68 µM | Vmax [6]: 1.2e-07 µmol/min/mg | Vmax/Km [6]: 0.07 µL/min/mg

B5: recombinant human UGT1A9 (Homo sapiens) (protein)
chain: GKLLVVPMDGSHWFTMRSVVEKLILRGHEVVVVMPEVSWQLGRSLNCTVKTYSTSYTLEDLDREFKAFAHAQWKAQVRSIYSLLMGSYNDIFDLFFSNCRSLFKDKKLVEYLKESSFDAVFLDPFDNCGLIVAKYFSLPSVVFARGILCHYLEEGAQCPAPLSYVPRILLGFSDAMTFKERVRNHIMHLEEHLLCHRFFKNALEIASEILQTPVTEYDLYSHTSIWLLRTDFVLDYPKPVMPNMIFIGGINCHQGKPLPMEFEAYINASGEHGIVVFSLGSMVSEIPEKKAMAIADALGKIPQTVLWRYTGTRPSNLANNTILVKWLPQNDLLGHPMTRAFITHAGSHGVYESICNGVPMVMMPLFGDQMDNAKRMETKGAGVTLNVLEMTSEDLENALKAVINDKSYKENIMRLSSLHKDRPVEPLDLAVFWVEFVMRHKGAPHLRPAAHDLTWYQYHSLDVIGFLLAVVLTVAFITFKCCAYGYRKCLGKKGRVKKAHKSKTH
notes: as for B1
Km [7]: 1.60 µM | Vmax [7]: 9e-07 µmol/min/mg | Vmax/Km [7]: 0.56 µL/min/mg

B6: recombinant human UGT1A1 (Homo sapiens) (protein)
chain: HAGKILLIPVDGSHWLSMLGAIQQLQQRGHEIVVLAPDASLYIRDGAFYTLKTYPVPFQREDVKESFVSLGHNVFENDSFLQRVIKTYKKIKKDSAMLLSGCSHLLHNKELMASLAESSFDVMLTDPFLPCSPIVAQYLSLPTVFFLHALPCSLEFEATQCPNPFSYVPRPLSSHSDHMTFLQRVKNMLIAFSQNFLCDVVYSPYATLASEFLQREVTVQDLLSSASVWLFRSDFVKDYPRPIMPNMVFVGGINCLHQNPLSQEFEAYINASGEHGIVVFSLGSMVSEIPEKKAMAIADALGKIPQTVLWRYTGTRPSNLANNTILVKWLPQNDLLGHPMTRAFITHAGSHGVYESICNGVPMVMMPLFGDQMDNAKRMETKGAGVTLNVLEMTSEDLENALKAVINDKSYKENIMRLSSLHKDRPVEPLDLAVFWVEFVMRHKGAPHLRPAAHDLTWYQYHSLDVIGFLLAVVLTVAFITFKCCAYGYRKCLGKKGRVKKAHKSKTH
notes: as for B1
Km [8]: 7.57 µM | Vmax [8]: 2e-07 µmol/min/mg | Vmax/Km [8]: 0.03 µL/min/mg

From article PMC8552062, “Contributions of UDP-Glucuronosyltransferases to Human Hepatic and Intestinal Metabolism of Ticagrelor and Inhibition of UGTs and Cytochrome P450 Enzymes by Ticagrelor and its Glucuronidated Metabolite” (Frontiers in Pharmacology, 2021)
